Assays:
[1] = target: T1, human Bfl-1 (c-myc-tagged) (human, UniProt Q16548 1-151, limits assumed); experiment: competition fluorescence anisotropy against fluoresceinated Bim BH3
T1 construct: c-myc-tagged in the fluorescence polarization and yeast-display assays; also called c-myc-Bfl-1; Myc-tagged Bfl-1; not shown: c-myc tag
T1 sequence (looked up): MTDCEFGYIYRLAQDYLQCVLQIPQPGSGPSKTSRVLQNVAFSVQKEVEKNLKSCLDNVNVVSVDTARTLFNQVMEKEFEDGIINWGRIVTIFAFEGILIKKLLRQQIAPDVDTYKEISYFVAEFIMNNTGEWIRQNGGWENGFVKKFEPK
Experimental: (§1) Fluorescence polarization assays were performed in order to measure the binding abilities of the peptide constructs. […] C-myc-tagged receptors were used for all Bcl-2 homologs. Plates were mixed at room temperature for 3 h. Experiments were done in triplicate. Data were fit, as described for competition fluorescence anisotropy experiments in Foight et al. (Foight, G. W., Ryan, J. A., Gullá, S. V, Letai, A. & Keating, A. E. Designed BH3 Peptides with High Affinity and Specificity for Targeting Mcl-1 in Cells. ACS Chem. Biol. 9, 1962-8 (2014)), to a complete competitive binding model (equation 17 in Roehrl et al., 2004)(Roehrl, M. H. A., Wang, J. Y. & Wagner, G. A General Framework for Development and Data Analysis of Competitive High-Throughput Screens for Small-Molecule Inhibitors of Protein-Protein Interactions by Fluorescence Polarization^{†}. Biochemistry 43, 16056-16066 (2004)) using a Python script.

[2] = target: T1, human Bfl-1 (c-myc-tagged); experiment: X-ray crystal structure
Experimental: To analyze the structural interactions between the peptides and Bfl-1, crystals of various complexes were grown and diffraction data collected. […] Crystals were seeded with drops containing parent crystals grown in higher ammonium sulfate (2.2-2.4 M) using a cat whisker. The protein was concentrated to 4 mg/ml in 20 mM Tris, 150 mM NaCl, 1% glycerol, 1 mM DTT, pH 8.0 and mixed with peptide at a 1:1 molar ratio. The hanging drops contained 1.5 μl of complex mixed with 1.5 μl of reservoir solution. Crystals were cryo-protected by transferring into 2.0 M lithium sulfate with 10% glycerol prior to flash freezing. Diffraction data were collected at the Advanced Photon Source at the Argonne National Laboratory, NE-CAT beamline 24ID-C. […] The peptide was built into the difference density from the rigid body refinement and the structure was refined with iterative rounds of refinement and model building using PHENIX and COOT.

[3] = target: T1, human Bfl-1 (c-myc-tagged); experiment: fluorescence anisotropy competition (FIG. 1E)
Experimental: as §1

[4] = target: T2, human Mcl-1 (c-myc-tagged) (human, UniProt Q07820 172-327); experiment: assay not named in the sentence (competition fluorescence anisotropy elsewhere)
T2 construct: c-myc-tagged in the fluorescence polarization assay; also called c-myc-Mcl-1; not shown: c-myc tag
T2 sequence (Q07820 172-327 limits assumed): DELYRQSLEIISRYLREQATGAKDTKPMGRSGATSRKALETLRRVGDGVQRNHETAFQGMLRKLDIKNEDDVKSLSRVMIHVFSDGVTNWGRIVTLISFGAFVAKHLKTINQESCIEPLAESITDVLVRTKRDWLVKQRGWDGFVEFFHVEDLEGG

B1: FS1 (peptide)
peptide: Ac-QWVREIAAGLRLAADNVNAQLER-NH2
- Ki [1]: 15 nM

B2: Puma BH3 peptide (23 residues) (peptide, UniProt Q9BXH1 132-154, looked up)
peptide: Ac-QWAREIGAQLRRMADDLNAQYER-NH2
notes: domain: BH3
- binding result [2]: binds

B3: PUMA/FS2 chimeric peptide: PUMA with larger residues at positions A2 and E2 (peptide)
peptide: Ac-QWVREIAAQLRRMADDLNAQYER-NH2
notes: also called PUMA/FS2 chimeric peptides
- fold increase in affinity against PUMA [3]: 2.3 fold

B4: FS2 (peptide)
peptide: Ac-QWVREIAAGLRRAADDVNAQVER-NH2
- fold increase in affinity against the chimera with smaller residues at G2, D3, A4 and E4 [3]: 28.6 fold
- fold weaker than binding to Bfl-1 [4]: > 100 fold

B5: PUMA/FS2 chimeric peptide: PUMA with smaller residues at positions G2, D3, A4 and E4 (peptide)
peptide: Ac-QWAREIGAGLRRAADDVNAQVER-NH2
notes: as for B3
- binding result [3]: binds

From patent US20190185531A1 (MIT, published 2019)
